Data: paper PMC7525064, “Transcriptome Analysis of Different Tissues Reveals Key Genes Associated With Galanthamine Biosynthesis in Lycoris longituba” (Frontiers in Plant Science, 2020)

Substrate: Oc1ccc(CCNCc2ccc(O)c(O)c2)cc1
Assay: purified protein
Format: biochemical, Lycoris longituba
Conditions: 200 μM AdoMet, 50 μM-2 mM norbelladine, 30 mM potassium phosphate pH 8.0, 30°C, 2 h

B1: LlOMT (Lycoris longituba O-Methyltransferase) (Lycoris longituba) (protein)
chain: MGASQDDYALIHKNILHSEDLLKYILETSVYPREHEQLKGLREVTEKHEWSMALVAADEGLFLSMLLKLMNAKRTIEIGVYTGYSLLTTALALPEDGKITAIDVNKSYFEIGLPFIQKAGVEHKINFIESEALPVLDQMLQEMKEEDLYDFAFVDADKPNYANYHERLVKLVRVGGAIVYDNTLWFGTVAFPEYPGLHPEEEECRVSFRNLNKLLAADPRVEISQVSIGDGLTICRRLY
B1 was tested, and the Km was 317 ± 17 µM.
